Patent US20250101086A1 (RESEARCH FOUNDATION OF THE CITY UNIVERSITY OF NEW YORK, published 2025)
Residue numbers refer to the chain shown, from its start.

T1: IR6 peptide (Borrelia burgdorferi strain B31, biotin-labeled on the N terminus)
T1 construct: Synthetic peptide based on VlsE of strain B31 (GenBank U76405); also called invariant region 6
T1 peptide: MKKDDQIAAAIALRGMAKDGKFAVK

T2: IR4 peptide (Borrelia burgdorferi strain B31, biotin-labeled on the N terminus)
T2 construct: also called invariant region 4
T2 peptide: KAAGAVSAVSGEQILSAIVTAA

B1: 1D11 recombinant monoclonal antibody (re-cloned from the second most abundant VH and VL sequences) (antibody, V domains shown)
VH: QSLVESGGGLVQPEGSLTLTCKASGFSFSSGYDMCWVRQAPGKGLEYIACIDAGDDITHYASWVKGRFTVSKTSSTTVTLQLNSLTVADTATYFCGRFWDLWGPGTLVTVSS
VL: SVLTQTPSPVSAAVGGTVTINCQSSQSVYDSTWLGWYQQKPGQPPKLLIYKASNLASGVPSRFKGSGSGTHFTLTISDLECDDAATYYCVGGYSGSVDNWAFGGGTEVVVK
notes: Rabbit recombinant monoclonal IgG; the rabbit constant regions are cited to the literature; The variable fragments were cloned into pcDNA3.4 and expressed in mouse cells; also called ID11; new rMAb
B2: antibody with VH SEQ ID NO: 3 and VL SEQ ID NO: 4 (antibody, V domains shown)
VH: QSLEESGGGLFKPTDTLTLTCTVSGIDLSSYAMIWVRQAPGKGLEWIGYIWSSGRIWYASWAKGRFTISRTSTTVDLKLASPTTEDTATYFCARLWDIWGPGTLVTVSS
VL: AQVLTQTPSSVSAAVGGTVTISCQASQSLYNGVNLAWYQQKPGQPPKLLIFGASNLESGVSSRFRGSGSGTQFTLTISGVQCDDAATYYCLGEFSCSSADCLAFGGGTEVVVK
B3: antibody with VH SEQ ID NO: 5 and VL SEQ ID NO: 6 (antibody, V domains shown)
VH: QSVEESGGRLVTPGTPLTLTCTVSGFPLSSYSMAWVRQAPGKGLEYIGFINTDGSAYYASWAKGRITISKTSTTVELKITSPTTEDTATYFCGTGNIWGPGTLVTVSS
VL: AQVLTQTPSSVSAAVGGTVTINCQASQSVSNNNVLAWFQQKPGQPPKRLIYSALTLDSGVPSRFKGSGSGTHFTLTISGVQCDDAATYYCAGGYDCSSNDCIAFGGGTEVVVK
B4: antibody with VH SEQ ID NO: 7 and VL SEQ ID NO: 8 (antibody, V domains shown)
VH: B3 VH with P27S, A34G, F49M, N51I, T52S, D53N, G54N, A56T
VL: B3 VL with S9A, V29T, V34A, A103T

Key:
IR6 peptide = biological target: T1, IR6 peptide; test: ELISA of purified rMAb on coated peptide
[1] = biological target: T3, recombinant VlsE protein (of strain B31) (Borrelia burgdorferi strain B31); test: titration on VlsE, given as ED50; method not given
T3 construct: domain: vlsE cassette region (including the IR1 through VR6 regions); Preparation of about 65% purity; Used as immunogen, as ELISA antigen and on beads; also called VISE; recombinant B31 VlsE

IR4 peptide = biological target: T2, IR4 peptide; test: not given; it says that supporting data are given elsewhere in the disclosure (ELISA)

Binder	binding result (IR6 peptide)	EC50 [1]	binding result (IR4 peptide)
B1	binds	0.0109 µg/mL	
B2			binds
B3			binds
B4			binds
